Source: paper PMC10326445, “Affinity-enhanced RNA-binding domains as tools to understand RNA recognition”

Assays:
[1] = biological target: FMRP RNA-WT (KH1 WT / KH2 RNA-KO, KH1-2 di-domain) (human (hFMRP), UniProt Q06787 216-425, K299D;N300D;del331-396); experiment: NMR titration; unit prefix lost in text (printed M), uM inferred; NMR titrations: 50 uM 15N-protein, 10 mM phosphate pH 6.9, 40 mM NaCl, 0.5 mM TCEP, protein:RNA 1:0 to 1:12; temperature not given; conditions: protein: recombinant; tags: N-terminal 6xHis, cleaved with HRV 3C; single strand
[2] = biological target: FMRP RNA-AE (KH1 GKKG / KH2 RNA-KO, KH1-2 di-domain) (human (hFMRP), UniProt Q06787 216-425, T236K;H237K;K299D;N300D;del331-396); experiment: NMR titration; Kd value only in figure; NMR titrations: 50 uM 15N-protein, 10 mM phosphate pH 6.9, 40 mM NaCl, 0.5 mM TCEP, protein:RNA 1:0 to 1:12; temperature not given; conditions: protein: recombinant; tags: N-terminal 6xHis, cleaved with HRV 3C; single strand

B1: UGGAC (ssRNA)
RNA: UGGAC
For B1, the Kd [1] was 418 ± 57.9 µM.

B2: GAGAC (ssRNA)
RNA: GAGAC
B2 was tested, and the binding signal [2] was about 3 fold tighter than GAGCC.

B3: UAGAC (ssRNA)
RNA: UAGAC
With B3 the binding signal [2] was 2.5 fold weaker than UGGAC.

B4: GAGCC (ssRNA)
RNA: GAGCC
Work on B4 yielded a binding signal [2] of about 3 fold weaker than GAGAC.
